Experimental findings from article PMC11047111 (Proceedings of the National Academy of Sciences of the …, 2024) are described below.

By stoichiometry N is commonly meant a count of units in the complex or per binding partner.

Series [1] deals with the molecule itself. Kind of series: SEC.
In series [2] the target is CUL3^NTD (N-terminal domain of cullin 3, residues 1 to 381) (UniProt Q13618 1-381). The series can be described thus: BLI. (Biolayer interferometry detects binding as a change in optical thickness at a sensor tip.)
CUL3^NTD (N-terminal domain of cullin 3, residues 1 to 381), sequence (Q13618 1-381): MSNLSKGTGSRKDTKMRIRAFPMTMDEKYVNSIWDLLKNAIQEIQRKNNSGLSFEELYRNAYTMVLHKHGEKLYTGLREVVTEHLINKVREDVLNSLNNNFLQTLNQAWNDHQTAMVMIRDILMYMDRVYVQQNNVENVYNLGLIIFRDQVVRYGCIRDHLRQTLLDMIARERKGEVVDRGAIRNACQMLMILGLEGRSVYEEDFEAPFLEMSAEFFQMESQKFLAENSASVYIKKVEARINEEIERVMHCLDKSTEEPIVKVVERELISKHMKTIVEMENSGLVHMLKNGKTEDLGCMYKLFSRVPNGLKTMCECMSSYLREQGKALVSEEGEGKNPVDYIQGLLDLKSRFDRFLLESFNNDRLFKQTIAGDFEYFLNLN

B1: KCTD5 (natural protein)
chain: MAENHCELLSPARGGIGAGLGGGLCRRCSAGLGALAQRPGSVSKWVRLNVGGTYFLTTRQTLCRDPKSFLYRLCQADPDLDSDKDETGAYLIDRDPTYFGPVLNYLRHGKLVINKDLAEEGVLEEAEFYNITSLIKLVKDKIRERDSKTSQVPVKHVYRVLQCQEEELTQMVSTMSDGWKFEQLVSIGSSYNYGNEDQAEFLCVVSKELHNTPYGTASEPSEKAKILQERGSRM
For B1, the “stoichiometry N” value in series [1] is 5.

B2: KCTD5 L161R (natural protein)
chain: MAENHCELLSPARGGIGAGLGGGLCRRCSAGLGALAQRPGSVSKWVRLNVGGTYFLTTRQTLCRDPKSFLYRLCQADPDLDSDKDETGAYLIDRDPTYFGPVLNYLRHGKLVINKDLAEEGVLEEAEFYNITSLIKLVKDKIRERDSKTSQVPVKHVYRVRQCQEEELTQMVSTMSDGWKFEQLVSIGSSYNYGNEDQAEFLCVVSKELHNTPYGTASEPSEKAKILQERGSRM
As to B2, the binding result in series [2] is “binds”.
